Assay results published in US20060222643A1 (Chugai, published 2006).
No end group written: not given here.

Tests used:
[1] = target: T1, cynomolgus monkey Mpl expressed on CHO cells (CHO-monkey Mpl) (cynomolgus monkey, UniProt P40238 26-635 (human entry)); experiment: flow cytometry on CHO cells
T1 construct: pCXND3-monkey Mpl-His in CHO-DG44; also called monkey Mpl-His
T1 chain: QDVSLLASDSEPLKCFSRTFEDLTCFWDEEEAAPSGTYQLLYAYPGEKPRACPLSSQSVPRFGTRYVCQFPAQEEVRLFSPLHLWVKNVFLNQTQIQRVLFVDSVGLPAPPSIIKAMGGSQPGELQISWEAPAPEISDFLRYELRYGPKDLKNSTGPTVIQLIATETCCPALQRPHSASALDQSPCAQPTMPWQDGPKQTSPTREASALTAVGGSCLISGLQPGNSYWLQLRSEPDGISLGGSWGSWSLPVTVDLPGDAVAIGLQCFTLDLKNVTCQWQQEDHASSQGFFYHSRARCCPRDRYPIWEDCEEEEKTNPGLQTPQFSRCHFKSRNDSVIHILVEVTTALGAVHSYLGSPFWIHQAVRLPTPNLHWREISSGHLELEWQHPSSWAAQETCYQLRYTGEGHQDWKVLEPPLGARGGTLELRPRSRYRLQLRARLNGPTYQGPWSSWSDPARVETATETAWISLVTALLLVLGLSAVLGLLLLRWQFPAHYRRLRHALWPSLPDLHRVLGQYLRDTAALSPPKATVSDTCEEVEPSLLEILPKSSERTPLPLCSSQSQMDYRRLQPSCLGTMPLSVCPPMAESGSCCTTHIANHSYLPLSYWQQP

[2] = target: T2, MG10 (Gln213 to Ala231)-GST fusion protein (human, also: fused with GST); experiment: SPR, Biacore 3000, MG10-GST immobilized on CM5, Bivalent analyte model (constants as for the monovalent antibody), triplicate
T2 construct: As MG1; also called MG10-GST fusion protein; GST fusion protein containing MG10; not shown: glutathione-S-transferase of vector pGEX-4T-3 (Amersham Biosciences)
T2 chain: QPTMPWQDGPKQTSPSREA
Procedure: The Sensor Chip CM5 (Biacore) was placed in Biacore 3000 (Biacore), and MG10-GST fusion protein was immobilized onto the chip by amine-coupling methods. HBS-EP Buffer (Biacore) was used as the running buffer, and the flow rate was 20 μL/min. 5.5 to 175.0 nM of VB22B IgG solution was prepared using HBS-EP Buffer, and injected over each of the chip surfaces for 2 min to obtain the binding region at the respective concentrations. Then, dissociation region for the 2 minutes was measured. VB22B IgG bound to the MG10-GST fusion protein on the sensor chip was removed by injecting 20 mM HCl over the sensor chip for 1 min, and the chip was recovered. Similarly, 4.7 to 150.1 nM of VB22B sc(Fv)2, 5.3 to 168.9 nM of hVB22B q-wz5 sc(Fv)2, and 4.9 to 156.8 nM of hVB22B u2-wz4 sc(Fv)2 were prepared and injected over the chip surfaces onto which MG10-GST fusion protein was immobilized, and the measurement was carried out.
All the antibodies used were bivalent antibodies, and thus the sensorgrams at each concentration were obtained in the presence of both monovalent and bivalent bindings. In this context, the reaction rate constant was determined as that for the monovalent antibody by analysis using the Bivalent analyte model of BIAevaluation ver.3.1 software (Biacore). The above analysis was carried out in triplicates for each antibody. The binding rate constant (ka), dissociation rate constant (kd), and dissociation constant (KD) were determined as those for the monovalent antibody by the procedure described above. The constants are indicated below in Table 1.

[3] = target: T3, human Mpl-IgG Fc fusion protein (human, UniProt P40238 26-491); experiment: SPR, Biacore 2000, human Mpl-IgG Fc immobilized on CM5 by amine coupling, 1.25 to 20 µg/mL VB22B IgG injected
T3 construct: Expressed in CHO-DG44 with a 19-residue signal peptide from a human IgG H chain variable region (left out); also called hMpl-Fc; hMPL-Fc; not shown: Fc region of human IgG-gamma1 (a region downstream of Asp 216)
T3 sequence: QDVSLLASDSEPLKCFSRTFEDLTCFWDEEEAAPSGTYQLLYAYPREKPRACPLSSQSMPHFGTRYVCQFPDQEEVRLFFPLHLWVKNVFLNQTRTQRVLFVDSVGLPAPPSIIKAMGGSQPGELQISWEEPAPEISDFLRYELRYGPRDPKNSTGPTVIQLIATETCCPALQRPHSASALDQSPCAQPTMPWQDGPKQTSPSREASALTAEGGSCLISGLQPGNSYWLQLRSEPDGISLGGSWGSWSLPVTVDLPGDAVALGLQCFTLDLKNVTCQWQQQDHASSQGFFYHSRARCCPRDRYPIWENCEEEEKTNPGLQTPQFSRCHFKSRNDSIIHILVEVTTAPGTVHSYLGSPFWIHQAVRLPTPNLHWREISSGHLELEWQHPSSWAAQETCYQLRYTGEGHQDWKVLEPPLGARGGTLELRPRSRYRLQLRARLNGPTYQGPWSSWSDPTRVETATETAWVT
Procedure: Since the anti-human Mpl antibody VB22B binds to soluble recombinant Mpl, kinetic analyses of the antigen-antibody reaction between VB22B IgG and human Mpl-IgG Fc fusion protein were carried out as described in Example 1.4. The Sensor Chip CM5 (Biacore) was placed in Biacore 2000 (Biacore), and human Mpl-IgG Fc fusion protein was immobilized onto the chip by amine-coupling methods. Then, 1.25 to 20 μg/mL of VB22B IgG solution was prepared using HBS-EP Buffer (Biacore), and injected over the chip surface for 2 min to reveal the binding region. Then, HBS-EP Buffer was injected over the chip surface for 2 min to reveal the dissociation region. VB22B IgG bound to the human Mpl-IgG Fc fusion protein on the sensor chip was removed by injecting 10 mM NaOH over the sensor chip for 15 sec, and the chip was recovered. HBS-EP Buffer was used as the running buffer, and the flow rate was 20 μL/min. Using the BIAevaluation Version 3.1 (Biacore) software, the reaction rate constant at each concentration was calculated from the sensorgrams.

binding result [1]: binds | Kd [2]: 11.5 nM | koff [2]: 0.0011 s⁻¹ | kon [2]: 96000 M⁻¹ s⁻¹ | Kd [3]: 1.67 nM
B1: anti-human Mpl antibody VB22B IgG (antibody, V domains shown)
VH: QVQLQQSGPELVKPGASVKISCKASGYAFTNSWMNWVKQRPGKGLEWIGRIYPGDGETIYNGKFRVKATLTADKSSSTAYMDISSLTSEDSAVYFCARGYDDYSFAYWGQGTLVTVSA
VL: DIVMTQAAPSIPVTPGESVSISCRSSKSLLHSNGNTYLYWFLQRPGQSPQLLIYRMSNLASGVPDRFSGSGSGTAFTLRISRVEAEDVGVYYCMQHIEYPFTFGSGTKLEIK
notes: also called murine antibody VB22B
